According to the supplement of paper PMC10065799, “High-throughput profiling of sequence recognition by tyrosine kinases and SH2 domains using bacterial peptide display” (eLife, 2023):

What was measured:
Grb2 SH2 = Grb2 SH2 (UniProt P62993); experiment: SH2 binding enrichment of the phosphorylated peptide, bacterial display (enrichment ratio); higher = better substrate or ligand; peptides without Tyr show the background
c-Src SH2 = experiment: as above
SHP2-C SH2 = experiment: as above
c-Src = experiment: phosphorylation enrichment, bacterial display (enrichment ratio); higher = better substrate or ligand; peptides without Tyr show the background
AncSZ = experiment: as above
EPHB1 = EPHB1 (UniProt P54762); experiment: as above
Sequence of EPHB1 (P54762 whole entry, looked up): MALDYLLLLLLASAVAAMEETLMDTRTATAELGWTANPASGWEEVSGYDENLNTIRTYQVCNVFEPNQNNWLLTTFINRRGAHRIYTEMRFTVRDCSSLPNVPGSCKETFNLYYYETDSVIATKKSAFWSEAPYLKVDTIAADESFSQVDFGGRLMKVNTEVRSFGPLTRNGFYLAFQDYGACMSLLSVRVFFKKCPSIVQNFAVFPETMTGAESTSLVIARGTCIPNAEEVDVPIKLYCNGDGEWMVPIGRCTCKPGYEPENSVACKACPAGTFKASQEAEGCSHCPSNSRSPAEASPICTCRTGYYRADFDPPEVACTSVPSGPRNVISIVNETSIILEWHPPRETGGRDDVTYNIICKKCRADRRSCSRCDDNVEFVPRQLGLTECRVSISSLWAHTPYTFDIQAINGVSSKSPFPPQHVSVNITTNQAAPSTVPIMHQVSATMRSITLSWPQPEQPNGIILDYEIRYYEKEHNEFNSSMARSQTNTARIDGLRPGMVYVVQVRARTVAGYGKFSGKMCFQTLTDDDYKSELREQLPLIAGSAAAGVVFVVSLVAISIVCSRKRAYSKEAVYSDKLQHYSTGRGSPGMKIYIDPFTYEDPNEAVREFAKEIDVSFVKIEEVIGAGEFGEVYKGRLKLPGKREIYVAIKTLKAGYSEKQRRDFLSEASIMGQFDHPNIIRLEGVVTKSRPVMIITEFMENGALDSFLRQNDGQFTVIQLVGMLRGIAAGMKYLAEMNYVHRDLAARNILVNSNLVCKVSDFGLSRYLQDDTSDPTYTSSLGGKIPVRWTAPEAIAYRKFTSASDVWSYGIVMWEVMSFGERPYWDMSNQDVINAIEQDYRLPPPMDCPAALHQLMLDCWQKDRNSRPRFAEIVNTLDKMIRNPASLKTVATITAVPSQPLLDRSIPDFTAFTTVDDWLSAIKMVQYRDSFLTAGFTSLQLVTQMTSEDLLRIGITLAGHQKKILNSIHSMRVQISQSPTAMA

Fes = Fes (UniProt P07332); experiment: as above
Sequence of Fes (P07332 whole entry, looked up): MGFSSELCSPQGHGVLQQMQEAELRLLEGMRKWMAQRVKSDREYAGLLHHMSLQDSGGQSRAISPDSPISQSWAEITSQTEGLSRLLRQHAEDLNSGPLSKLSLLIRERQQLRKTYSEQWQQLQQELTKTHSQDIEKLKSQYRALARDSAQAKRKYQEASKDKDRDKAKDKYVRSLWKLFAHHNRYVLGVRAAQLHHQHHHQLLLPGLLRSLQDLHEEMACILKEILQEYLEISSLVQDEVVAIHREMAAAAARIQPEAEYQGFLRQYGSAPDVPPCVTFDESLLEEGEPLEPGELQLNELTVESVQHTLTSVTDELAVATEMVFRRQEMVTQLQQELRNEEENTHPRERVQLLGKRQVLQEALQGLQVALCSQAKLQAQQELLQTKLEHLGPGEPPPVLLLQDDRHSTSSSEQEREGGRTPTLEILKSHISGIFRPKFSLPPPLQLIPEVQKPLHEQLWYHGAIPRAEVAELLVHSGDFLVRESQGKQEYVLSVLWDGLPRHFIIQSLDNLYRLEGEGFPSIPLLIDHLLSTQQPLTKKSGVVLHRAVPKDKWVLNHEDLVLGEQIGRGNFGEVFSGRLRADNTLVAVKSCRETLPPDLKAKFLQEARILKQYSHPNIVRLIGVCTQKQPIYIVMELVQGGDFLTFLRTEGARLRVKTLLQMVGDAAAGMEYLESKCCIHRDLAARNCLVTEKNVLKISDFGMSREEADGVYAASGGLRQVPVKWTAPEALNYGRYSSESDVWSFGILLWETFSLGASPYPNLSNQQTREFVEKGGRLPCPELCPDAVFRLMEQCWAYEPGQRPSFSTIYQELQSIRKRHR

Fyn = Fyn (UniProt P06241); experiment: as above
Sequence of Fyn (P06241 whole entry, looked up): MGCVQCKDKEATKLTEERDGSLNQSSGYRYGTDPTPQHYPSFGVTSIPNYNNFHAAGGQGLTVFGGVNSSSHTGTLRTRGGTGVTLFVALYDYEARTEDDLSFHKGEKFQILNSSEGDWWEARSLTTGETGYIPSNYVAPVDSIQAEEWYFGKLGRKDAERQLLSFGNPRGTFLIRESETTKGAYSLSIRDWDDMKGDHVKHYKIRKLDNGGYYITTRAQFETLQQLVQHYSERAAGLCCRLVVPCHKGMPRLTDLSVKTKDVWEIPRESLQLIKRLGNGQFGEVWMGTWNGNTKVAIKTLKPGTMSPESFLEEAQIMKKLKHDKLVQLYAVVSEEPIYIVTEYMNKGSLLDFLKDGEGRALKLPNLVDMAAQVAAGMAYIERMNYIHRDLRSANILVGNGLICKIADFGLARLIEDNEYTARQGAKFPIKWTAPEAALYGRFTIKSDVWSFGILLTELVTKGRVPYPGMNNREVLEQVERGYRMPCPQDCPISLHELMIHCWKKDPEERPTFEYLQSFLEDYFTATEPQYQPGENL

Jak2 = Jak2 (UniProt O60674); experiment: as above
Hck = Hck (UniProt P08631); experiment: as above
Sequence of Hck (P08631 whole entry, looked up): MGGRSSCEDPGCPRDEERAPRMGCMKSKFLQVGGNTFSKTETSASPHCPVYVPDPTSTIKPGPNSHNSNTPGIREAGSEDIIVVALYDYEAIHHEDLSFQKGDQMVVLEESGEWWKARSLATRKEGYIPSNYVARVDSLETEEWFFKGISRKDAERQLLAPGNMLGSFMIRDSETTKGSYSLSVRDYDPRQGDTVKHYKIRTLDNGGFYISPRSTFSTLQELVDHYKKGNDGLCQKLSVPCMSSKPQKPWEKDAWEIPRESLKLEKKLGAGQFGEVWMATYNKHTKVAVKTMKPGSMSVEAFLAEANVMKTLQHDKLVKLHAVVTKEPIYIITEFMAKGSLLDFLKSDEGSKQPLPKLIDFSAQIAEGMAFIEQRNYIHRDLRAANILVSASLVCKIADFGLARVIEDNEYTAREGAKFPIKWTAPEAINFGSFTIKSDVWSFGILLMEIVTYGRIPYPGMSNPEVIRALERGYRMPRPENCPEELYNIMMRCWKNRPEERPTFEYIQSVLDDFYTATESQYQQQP

EPHB2 = EPHB2 (UniProt P29323); experiment: as above
FGFR3 = FGFR3 (UniProt P22607); experiment: as above
c-Abl (mouse) = experiment: as above
Fer (mouse) = experiment: as above
FGFR1 = FGFR1 (UniProt P11362); experiment: as above
Sequence of FGFR1 (P11362 whole entry, looked up): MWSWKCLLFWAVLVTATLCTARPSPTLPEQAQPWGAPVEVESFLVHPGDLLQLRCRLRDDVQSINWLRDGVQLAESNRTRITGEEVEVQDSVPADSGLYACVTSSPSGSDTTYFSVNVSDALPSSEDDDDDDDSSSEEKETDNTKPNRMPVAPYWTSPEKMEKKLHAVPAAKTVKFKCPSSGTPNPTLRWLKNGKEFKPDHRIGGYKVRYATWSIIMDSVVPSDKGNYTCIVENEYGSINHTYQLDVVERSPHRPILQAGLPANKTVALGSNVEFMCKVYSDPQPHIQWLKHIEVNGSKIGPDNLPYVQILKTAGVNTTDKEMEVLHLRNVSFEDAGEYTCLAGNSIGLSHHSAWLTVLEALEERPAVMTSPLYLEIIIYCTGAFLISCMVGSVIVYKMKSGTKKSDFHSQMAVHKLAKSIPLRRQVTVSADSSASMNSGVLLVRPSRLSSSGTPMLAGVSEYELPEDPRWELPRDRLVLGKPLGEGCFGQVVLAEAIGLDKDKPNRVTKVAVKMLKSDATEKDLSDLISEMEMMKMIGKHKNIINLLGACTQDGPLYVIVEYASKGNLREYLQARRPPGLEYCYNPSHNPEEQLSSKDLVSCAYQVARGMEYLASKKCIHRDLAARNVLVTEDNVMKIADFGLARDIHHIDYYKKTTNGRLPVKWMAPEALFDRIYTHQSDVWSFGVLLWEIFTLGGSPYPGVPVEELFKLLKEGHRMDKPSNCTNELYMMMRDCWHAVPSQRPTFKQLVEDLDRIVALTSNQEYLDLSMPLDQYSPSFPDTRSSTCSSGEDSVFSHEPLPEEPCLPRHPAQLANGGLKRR

MERTK = MERTK (UniProt Q12866); experiment: as above
Sequence of MERTK (Q12866 whole entry, looked up, the tested form may be a part): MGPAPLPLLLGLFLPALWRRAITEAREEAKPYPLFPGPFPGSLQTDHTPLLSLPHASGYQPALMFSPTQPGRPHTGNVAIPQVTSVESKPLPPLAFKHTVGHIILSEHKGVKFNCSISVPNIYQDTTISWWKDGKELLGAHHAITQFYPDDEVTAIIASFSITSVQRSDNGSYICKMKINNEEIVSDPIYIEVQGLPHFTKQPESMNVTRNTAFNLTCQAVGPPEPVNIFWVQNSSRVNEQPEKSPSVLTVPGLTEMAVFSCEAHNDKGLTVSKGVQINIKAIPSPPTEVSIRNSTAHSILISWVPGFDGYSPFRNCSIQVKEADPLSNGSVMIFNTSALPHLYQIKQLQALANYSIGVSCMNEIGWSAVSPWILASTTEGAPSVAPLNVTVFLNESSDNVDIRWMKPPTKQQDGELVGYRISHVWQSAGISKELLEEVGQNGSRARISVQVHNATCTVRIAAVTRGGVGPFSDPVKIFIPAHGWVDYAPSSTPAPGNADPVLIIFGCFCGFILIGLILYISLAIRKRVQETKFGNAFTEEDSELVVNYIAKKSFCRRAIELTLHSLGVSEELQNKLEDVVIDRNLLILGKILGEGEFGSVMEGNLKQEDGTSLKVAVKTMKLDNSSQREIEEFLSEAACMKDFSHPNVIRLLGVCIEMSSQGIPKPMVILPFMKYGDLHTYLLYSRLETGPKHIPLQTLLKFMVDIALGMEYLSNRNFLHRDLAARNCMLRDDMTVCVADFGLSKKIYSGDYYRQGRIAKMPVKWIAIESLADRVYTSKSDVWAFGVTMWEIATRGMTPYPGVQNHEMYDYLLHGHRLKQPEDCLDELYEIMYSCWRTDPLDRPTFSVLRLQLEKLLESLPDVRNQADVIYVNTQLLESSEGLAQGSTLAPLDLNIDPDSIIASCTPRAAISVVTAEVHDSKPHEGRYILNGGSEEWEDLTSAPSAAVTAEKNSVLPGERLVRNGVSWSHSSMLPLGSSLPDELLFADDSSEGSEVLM
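Throughout, for SH2 binding enrichment of the phosphorylated peptide, bacterial display: peptide library displayed on the E. coli surface as eCPX fusions, selected cells deep-sequenced, score is each peptide's frequency after selection divided by its frequency in the input.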
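Throughout, for phosphorylation enrichment, bacterial display: 11-residue human phosphosite peptides and single-mutation variants displayed on the E. coli surface, counted by deep sequencing, each peptide's frequency after selection divided by its frequency in the unselected input library; frequency after pTyr selection over input frequency; kinase dosed for 20-30% of maximal phosphorylation in three min.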

Sequence of Grb2 SH2 (P62993 whole entry, looked up): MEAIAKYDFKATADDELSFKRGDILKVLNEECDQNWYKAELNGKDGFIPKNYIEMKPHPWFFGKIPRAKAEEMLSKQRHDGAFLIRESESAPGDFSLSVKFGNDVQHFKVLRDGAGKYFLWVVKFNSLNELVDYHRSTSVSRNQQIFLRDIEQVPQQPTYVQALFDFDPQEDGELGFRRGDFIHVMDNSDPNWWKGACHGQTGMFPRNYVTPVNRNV

Sequence	SH2 binding enrichment (Grb2 SH2)	SH2 binding enrichment (c-Src SH2)	SH2 binding enrichment (SHP2-C SH2)	phosphorylation enrichment (c-Src)	phosphorylation enrichment (AncSZ)	phosphorylation enrichment (EPHB1)	phosphorylation enrichment (Fes)	phosphorylation enrichment (Fyn)	phosphorylation enrichment (Jak2)	phosphorylation enrichment (Hck)	phosphorylation enrichment (EPHB2)	phosphorylation enrichment (FGFR3)	phosphorylation enrichment (c-Abl (mouse))	phosphorylation enrichment (Fer (mouse))	phosphorylation enrichment (FGFR1)	phosphorylation enrichment (MERTK)
SVETPYVSVTF [NDRG2_Y47_G48V]	0.632	0.485	0.827	2.05	1.26	0.632	1.19	0.784	1.1	0.662	0.629	0.936	0.844	1.56	0.897	0.47
DSGRDYVSQFE [APOA1_Y53]	0.875	0.487	0.631	0.403	0.914	0.685	0.922	0.489	0.665	0.529	0.492	0.673	0.601	0.478	0.462	0.409
PFTRNYYVWAV [CYBA_Y87_R90W]	1.32	0.899	1.54	0.777	1.41	3.1	1.12	0.744	2.5	1.03	3.42	8.21	4.71	1.2	9.92	6.79
DAICFYRMENA [NPHS2_Y195_YF]	0.785	0.56	0.805	2.96	1.14	0.645	1.47	0.726	1.19	0.624	0.544	0.85	0.914	0.592	0.624	0.482
DTQNSYGCATS [TSC1_Y304]	0.867	0.595	0.918	0.555	0.7	0.432	0.834	0.433	0.489	0.498	0.445	0.707	0.884	0.483	0.422	0.393
VTRANYFIRDE [GNAS_Y339_K338N]	0.984	0.434	0.8	0.494	0.705	0.541	0.736	0.474	0.845	0.388	0.449	0.621	0.712	0.45	0.412	0.45
TDGIAYEFRVI	0.753	0.47	0.642	0.527	1.46	0.659	1.34	0.514	1.32	0.655	0.603	0.852	0.854	0.843	0.507	0.495
LGPSDYFGEIV [PRKAR1A_Y323_A328V]	1.03	0.654	0.738	0.781	1.41	0.717	0.913	0.655	1.06	0.577	0.722	1.42	0.746	0.586	1.49	0.529
SLIEHYEPSET [PLCD1_Y258_R257H]	0.927	0.929	0.806	0.446	1.05	0.541	0.977	0.513	0.983	0.535	0.548	0.704	0.624	0.525	0.586	0.422
RLLVIYPWTQR [HBG2_Y36_V35I]	1.97	1.31	1.49	0.588	1.98	0.836	1.46	0.793	1.12	0.635	0.639	1.03	0.907	0.498	0.594	0.58
AHAGEHGAEAL [HBA1_Y25_Y25H]	0.782	0.484	0.763	0.461	0.521	0.378	0.703	0.354	0.491	0.479	0.439	0.451	0.454	0.419	0.476	0.382
NDEDIYKGLPD [VAV3_Y141]	0.85	0.57	0.902	0.837	1.23	0.727	1.21	0.879	0.947	0.878	0.674	0.794	0.802	0.534	0.584	0.444
ANNPLYKEATS [ITGB3_Y773]	1.04	0.53	0.913	0.3	0.395	0.363	0.53	0.343	0.406	0.385	0.499	0.379	0.635	0.228	0.349	0.316
AFAEVYEGQVS [ALK_Y1131_G1128A]	0.888	0.506	0.769	1.21	1.07	0.559	0.974	0.563	1.09	0.796	0.504	0.695	0.868	0.518	0.414	0.484
RHFTGYRIELQ [INSR_Y818]	1.77	1.38	2.13	0.525	1.01	0.472	1.37	0.604	0.989	0.401	0.56	0.661	0.805	0.544	0.531	0.546
DTQNSYWCATS [TSC1_Y304_G305W]	1.01	0.884	0.849	0.52	0.952	0.535	0.916	0.485	0.805	0.518	0.456	0.832	0.633	0.405	1.07	1.36
ACRSLYGGFVE [MVD_Y164]	0.751	0.574	0.808	7.11	1.11	0.568	1.04	11.2	0.698	7.94	0.642	0.727	0.511	0.605	0.625	0.621
